Experiment [1] concerns the target T1, mouse PD-1 protein (mouse, UniProt Q02242 25-167).
T1 construct: Detected with anti human-Fc cryptate, so probably Fc tagged; also called mouse PD-1 (R&D Systems cat no. 1021-PD)
T1 sequence (looked up): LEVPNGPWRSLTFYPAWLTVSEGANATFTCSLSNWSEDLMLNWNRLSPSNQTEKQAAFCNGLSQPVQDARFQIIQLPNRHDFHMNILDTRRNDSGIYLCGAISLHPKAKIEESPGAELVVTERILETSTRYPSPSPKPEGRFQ
Put plainly: HTRF binding, 2 nM mouse PD-1. As for the experimental part: e) Species Cross Reactivity Testing Purified […] were tested for their ability to bind to human PD-1 (R&D Systems cat no. 1086-PD), cynomolgus PD-1 (Acro Biosystems cat no. PD-1-05254) and mouse PD-1 (R&D Systems cat no. 1021-PD) in an HTRF Binding assay format. All reagents and serially diluted VH were prepared in assay buffer containing PBS, 0.1% BSA and 0.4M Potassium Fluoride. Samples or assay buffer (non-specific binding) were incubated with 2 nM human/cynomolgus or mouse PD-1, 1 nM Anti human-Fc Cryptate PAb (Cisbio cat. no. 61HFCKLB) and 30 nM anti His-D2 (CisBio cat no 61HISDLA) in black 384-shallow well assay plates for a minimum of 3 hours at room temperature. Time-resolved fluorescent emission at 620 nm and 665 nm was measured following excitation at 337 nm on the BMG PHERAstar plate reader. The HTRF ratio were calculated ((665 nm emission/620 nm emission)*10000) and the data corrected for (non-specific binding) to give the specific binding signal.

Experiment [2] deals with T2, human PD-1 expressed on cells (CHO human PD-1 cells) (human, UniProt Q15116 21-288).
T2 construct: also called CHO TREX human PD-1 cell line; CHO PD-1
The experiment in a line: FMAT inhibition; 200 pM PD-L2 on CHO human PD-1 cells. As for the experimental part:
All reagents and serially diluted VH were prepared in FMAT assay buffer. […] Plates were incubated for 2 hours at room temperature then fluorescence measured in the FL2 (502 nm-537 nm) and FL5 (677-800 nm) channels on the Mirrorball plate reader (TTP) following excitation at 488 nm and 640 nm. Data was expressed as a % of the total binding control (i.e. % control) after subtraction of the background signal determined from the non-specific binding control wells.

Experiment [3] concerns the target T3, human PD-1 on primary human CD4+ T cells (human, UniProt Q15116 21-288). Put plainly: flow cytometry, PHA-stimulated human CD4+ T cells, donor 1. As for the experimental part:
(§1) Binding of monovalent single domain antibodies and multivalent binding agents to T cells was measured using flow cytometry. […] T-cells were stimulated with 2.5 μg/ml PHA for 2-4 days in RPMI media supplemented with 10% FBS, 2 mM Glutamine, 1× Pen/Strep. Cells were transferred into 96 well plates (75000 per well), blocked for 10 mins with PBS/1% BSA, then incubated with serially diluted VH in staining buffer (PBS/1% BSA) for 1 hour at 4° C. Cells were washed with staining buffer by centrifugation then incubated with 10 μg/ml biotinylated Anti His antibody for 40 mins at 4° C. Cells were washed again then stained with Streptavidin Alexa Fluor-488 (10 μg/ml) and 1:5000 diluted Live Dead near IR stain (Molecular Probes cat no. L10119) for 30 mins at 4° C. After further washing cells were fixed and fluorescence measured by flow cytometry.

Experiment [4] addresses T3, human PD-1 on primary human CD4+ T cells. The experiment in a line: flow cytometry, PHA-stimulated human CD4+ T cells, donor 2. As for the experimental part: as §1
For experiment [5] the target is unchanged. Put plainly: flow cytometry, PHA-stimulated human CD4+ T cells, donor 4. As for the experimental part: as §1
The target in experiment [6] is T2, human PD-1 expressed on cells (CHO …). The experiment in a line: FMAT epitope competition on CHO human PD-1 cells; competitor 1 nM 1.1-Strep. As for the experimental part:
(§2) For the epitope competition assay reagents were prepared in FMAT assay buffer. […] Plates were incubated for a minimum of 1.5 hours at room temperature then fluorescence measured in the FL2 (502 nm-537 nm) and FL5 (677-800 nm) channels on the Mirrorball plate reader (TTP) following excitation at 488 nm and 640 nm. Data was expressed as a % of the total binding control (i.e. % control) after subtraction of the background signal determined from the non-specific binding control wells.

For experiment [7] the target is unchanged. The experiment in a line: FMAT direct binding to CHO human PD-1 cells; column headed CHO PD-1 binding IC50 (M). From the text:
Plates were read in the FL2 (502 nm-537 nm) and FL5 (677-800 nm) channels on the TTP Mirrorball plate reader following excitation at 488 nm and 640 nm.

Experiment [8] shares this target. The experiment in a line: FMAT 1.57 epitope competition on CHO human PD-1 cells; competitor 1.57-Strep; sample kept 1 day in mouse serum. As for the experimental part:
as §2
(§3) Serum stability of VH and multivalent VH constructs was assessed by measurement of their activity following incubation for 0, 1, 4 or 7 days in mouse serum (Sigma M5905).

Experiment [9] shares this target. The experiment in a line: FMAT 1.57 epitope competition on CHO human PD-1 cells; competitor 1.57-Strep; sample kept 4 days in human serum.
For experiment [10] the target is unchanged. Put plainly: FMAT 1.57 epitope competition on CHO human PD-1 cells; competitor 1.57-Strep; sample kept 4 days in mouse serum. As for the experimental part: as §2, §3

T3 sequence (Q15116 21-288): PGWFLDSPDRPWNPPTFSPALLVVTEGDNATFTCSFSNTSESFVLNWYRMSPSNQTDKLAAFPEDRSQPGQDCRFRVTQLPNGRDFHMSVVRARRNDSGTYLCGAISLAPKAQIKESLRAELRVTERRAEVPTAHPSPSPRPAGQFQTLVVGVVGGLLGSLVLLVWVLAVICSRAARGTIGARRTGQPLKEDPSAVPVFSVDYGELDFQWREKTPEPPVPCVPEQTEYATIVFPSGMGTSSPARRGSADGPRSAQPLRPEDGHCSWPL
T2 sequence (Q15116 21-288): as above

B1: Humabody® 1.92 (VHH)
VHH: EVQLVESGGGLVKPGGSLRLSCAASGFTFSDESMTWMRQAPGKGLEWVSYISSGGGVKFYADSVKGRFTISRDNAKNSLYLQMNSLRAEDTAVYYCAREAPLRLGESPHDAFDISGQGTMVTVSS
notes: human VH single domain antibody
Consider B1, for which the binding result in [1] is “no binding”. For the same molecule, the IC50 worked out at 4 nM in experiment [2]; 0.79 nM in experiment [6]; 4.4 nM in [8]; 6.1 nM in experiment [9]; 4.7 nM in [10]. The EC50 in [3] was determined as 0.8 nM; in experiment [4], 1.1 nM; in experiment [5], 0.9 nM; in experiment [7], 0.1 nM.

The record behind these values is US20200239573A1 (CRESCENDO BIOLOGICS, published 2020).
